Reference: paper PMC11948038, “Evolutionary Pro‐To‐Thr Mutation in the Intrinsically Disordered Domain of ANP32 Family Members Modulates Their Target Binding Modes” (Advanced Science, 2025)

B3: cytochrome c (natural protein)
chain: not shown
notes: cytochrome c (Cc), a hemeprotein; Carries a heme group; the reduced form was used in ITC and NMR relaxation; 15N-labelled for the NMR titrations; Expression and purification are in the Supporting Information Appendix; also called Cc; hemeprotein Cc; source: details in the Supporting Information

Assays:
Conditions in all cases: both partners purified
[1] = biological target: T1, HuR_(106-326) (UniProt Q15717 106-326); assay: ITC; 1 mM peptide titrated onto 100 µM HuR_(106-326); 10 mM sodium phosphate pH 6.3, low ionic strength
T1 construct: also called HuR construct containing the RRM domains 2 and 3, separated by the hinge region; source: details in the Supporting Information
T1 sequence (Q15717 106-326): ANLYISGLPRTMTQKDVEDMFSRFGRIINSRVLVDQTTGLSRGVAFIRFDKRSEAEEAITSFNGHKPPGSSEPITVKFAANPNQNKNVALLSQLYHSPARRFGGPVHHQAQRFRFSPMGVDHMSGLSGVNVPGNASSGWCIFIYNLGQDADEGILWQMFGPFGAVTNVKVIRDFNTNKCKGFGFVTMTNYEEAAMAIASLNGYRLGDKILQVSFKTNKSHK

[2] = biological target: B3; assay: ITC; 1 mM peptide titrated onto 110 or 150 µM reduced Cc; 10 mM sodium phosphate pH 6.3; single binding-site model
[3] = biological target: T2, HuR_(106-326) (UniProt Q15717 106-326); assay: ITC; 1 mM peptide titrated onto 100 µM HuR106-326 in the cell; 17 injections of 2.91 µL; 10 mM sodium phosphate buffer pH 6.3 (low ionic strength); stirring 200 rpm; Nano ITC Low Volume
T2 construct: amplified from a pGEX-4T-2 plasmid carrying full-length HuR; No cleavage of the tags is told; also called human antigen R construct with RRM2, hinge region and RRM3; source: E. coli BL21 (DE3), purified (Ni-NTA, dialysis)
T2 sequence (Q15717 106-326): as above

[4] = biological target: T3, full-length ANP32A (human, UniProt P39687 1-249); assay: ITC; moderate ionic strength (100 mM): 20 mM sodium phosphate pH 7.4 with 50 mM NaCl; 400 µM reduced Cc injected into 50 µM ANP32A; single site
T3 construct: Used in ITC and NMR titrations; construct details are in the Supporting Information Appendix; also called acidic leucine-rich nuclear phosphoprotein 32 A; source: details in the Supporting Information

[5] = biological target: T4, biotinylated ANP32A (human, UniProt P39687 1-249, biotin (site not stated)); assay: BLI; biotinylated ANP32 proteins on a streptavidin-coated sensor, increasing concentrations of Cc; wavelength shifts at equilibrium plotted against Cc concentration
T4 construct: ANP32A, human, biotinylated and attached to a streptavidin-coated sensor

[6] = biological target: T5, biotinylated ANP32B (human, UniProt Q92688 1-251, biotin (site not stated)); assay: as above
T5 construct: ANP32B, human, biotinylated and attached to a streptavidin-coated sensor

[7] = biological target: T3, full-length ANP32A; assay: ITC; low ionic strength (25 mM): 10 mM sodium phosphate pH 7.4; 400 µM reduced Cc injected into 50 µM ANP32A construct; two-ligand binding sites model, no cooperativity
[8] = biological target: T3, full-length ANP32A; assay: as above; remark: listed apart in the source

B1: ANP32B_(232-251) peptide (peptide)
peptide: EEGGKGEKRKRETDDEGEDD
notes: also called ANP32B peptide; source: synthetic peptide (Genecust, France)
B1 was tested, and the “stoichiometry N” value [1] was 2, the Kd [2] was 710 µM and the dH [2] was -8 kcal/mol. The “stoichiometry N” value [2] was 1.2 ± 0.03.

B2: ANP32B_(232-251) peptide (peptide)
peptide: EEGGKGEKRKRETDDEGEDD
notes: as for B1
For B2, the Kd [3] was 550 µM and the “stoichiometry N” value [3] was 1.9 ± 0.03.

With B3 the Kd [4] was 32 µM, the dH [4] was 1.5 kcal/mol and the “stoichiometry N” value [4] was 0.6 ± 0.03. The Kd [5] was ~2300 nM, the Kd [6] was ~4.2 µM and the “stoichiometry N” value [7] was 2. For the same binder, the “KD of site 1” value [8] was 3.6 µM, the “KD of site 2” value [8] was 34 µM and the “dH of site 1” value [8] was 0.4 kcal/mol. For the same binder, the “dH of site 2” value [8] was 8.6 kcal/mol.

B4: ANP32A_(230-249) peptide (peptide)
peptide: EEERGQKRKREPEDEGEDDD
notes: also called ANP32A peptide; source: synthetic peptide (Genecust, France)
For B4, the Kd [3] was 120 µM and the “stoichiometry N” value [3] was 1.8 ± 0.03.

B5: ANP32A_(230-249) P241T peptide (peptide)
peptide: EEERGQKRKRETEDEGEDDD
notes: also called single mutant; source: synthetic peptide (Genecust, France)
B5 was tested, and the Kd [2] was 190 µM, the dH [2] was -6.9 kcal/mol and the “stoichiometry N” value [2] was 0.77 ± 0.03.

B6: ANP32A_(230-249) Q235E/P241T peptide (peptide)
peptide: EEERGEKRKRETEDEGEDDD
notes: also called double mutant; source: synthetic peptide (Genecust, France)
With B6 the Kd [2] was 190 µM, the dH [2] was -8.2 kcal/mol and the “stoichiometry N” value [2] was 0.77 ± 0.03.

B7: ANP32A_(230-249) peptide (peptide)
peptide: EEERGQKRKREPEDEGEDDD
notes: also called ANP32A peptide; NLS-containing peptide; source: synthetic peptide (Genecust, France)
With B7 the “fold affinity against ANP32B_(232-251)” value [1] was ~5 fold, the “stoichiometry N” value [1] was 2 and the Kd [2] was 69 µM. For the same binder, the dH [2] was -2.6 kcal/mol and the “stoichiometry N” value [2] was 0.76 ± 0.03.
